Source: PMC5131891, “Structural Insights into Streptococcal Competence Regulation by the Cell-to-Cell Communication System ComRS” (PLoS Pathogens, 2016)
Read-outs that look alike come from different tables or passages of the source. Peptide text beside a SMILES is read from it.

Legend:
[1] = test system: ComR from S. thermophilus; parameters: method as in 2 sources, ref [30] = [30]; PMID 23323845; doi:10.1111/mmi.12157; 30 Fontaine L , Goffin P , Dubout H , Delplace B , Baulard A , Lecat-Guillet N , et al Mechanism of competence activation by the ComRS signalling system in streptococci . Mol Microbiol . 2013; 87 ( 6 ||| ref [29] = [29]; PMID 20023010; doi:10.1128/JB.01251-09; 29 Fontaine L , Boutry C , de Frahan MH , Delplace B , Fremaux C , Horvath P , et al A novel pheromone quorum-sensing system controls the development of natural competence in Streptococcus thermophilu; conditions: cited from earlier work; for in vivo activation efficiency / activation of ComR: previous analysis, ComR from S. thermophilus, ref [30]; for activity of heptapeptide ComS18-24: previous study, lacking the N-terminal Leucine, ref [29]
ComR WT [2] = molecular target: ComR WT (Streptococcus thermophilus, UniProt A0A1L1QK15); test: biochemical; type: binding, Streptococcus thermophilus LMD-9; conditions: for Kd: Table 2 (WT and variant XIPs), ITC, 20°C, 20 mM Tris-HCl pH 8.0, 150 mM NaCl, 1 mM EDTA, 50 μM protein in cell, 500 μM peptide in syringe, one-binding-site model, apparent KD, read-out: KD
Method: Purification of ComR-StreptagII proteins (StreptagII at C-terminus) was performed as described previously with some modifications. E. coli strain BL21 Gold cultures were grown in 2YT medium at 15°C until an OD600 of ~ 0.5, cooled down on ice for 10 minutes, and induced by addition of 0.2% of L-arabinose (wt vol^-1) before continuous shaking at 28°C for 4 h. Cells were then harvested by centrifugation (5,000 × g during 15 min at 8°C). The pellets were resuspended in cold buffer W (100 mM Tris-HCl pH 8.0, 150 mM NaCl, 1 mM EDTA) supplemented with 0.5 mg ml^−1 of lysozyme, incubated for 30 min at 4°C, and sonicated at 4°C. […] For structural and biophysical analyses, the purification protocol was completed by a size exclusion chromatography step using a HiLoad 16/600 Superdex 75 prep grade column (GE Healthcare) equilibrated in buffer W plus 10% (vol vol^-1) glycerol. Purified proteins were aliquoted, flash frozen and conserved at -20°C. Their purity was visualized by SDS-PAGE and their concentrations were measured using a Nanodrop apparatus (protein A280 method) (ThermoFisher Scientific).
Isothermal titration calorimetry (ITC) experiments were performed at 20°C in 20 mM Tris-HCl pH 8.0, 150 mM NaCl, 1 mM EDTA with an ITC200 calorimeter (Microcal). The protein concentration in the microcalorimeter cell and the peptide concentration in the syringe were set at 50 μM and 500 μM, respectively. A first injection of 0.4 μl, which was not taken into account for the fitting, was followed by 20 injections of 2 μl at intervals of 180 s. The peptide concentration used in the calculations is based on the weight of the lyophilized peptide and is therefore inaccurate because there may be a significant quantity of bound water, and salts or counter ions. However, the calculated number of binding sites, n, is always close to 1, in agreement with the 1:1 ratio observed in the crystal structure of the ternary complex. […] The data were analyzed using the MicroCal Origin software provided by the manufacturer. […] It was therefore not possible to distinguish the two events and the fitting was performed with the one-binding-site model. The calculated KD are therefore apparent values.

[3] = molecular target: ComR F171A/Y174A (ComR-StreptagII double mutant) (Streptococcus thermophilus LMD-9); test: ITC; peptide 500 μM in the syringe, ComR 50 μM in the cell; 20°C; 20 mM Tris-HCl pH 8.0, 150 mM NaCl, 1 mM EDTA; one-binding-site model; apparent KD (peptide binding and dimerization not told apart)
[4] = molecular target: ComR K100A (ComR-StreptagII mutant) (Streptococcus thermophilus LMD-9); test: as above
[5] = molecular target: ComR K87A/K246A (ComR-StreptagII double mutant) (Streptococcus thermophilus LMD-9); test: as above
[6] = molecular target: ComR R92A (ComR-StreptagII mutant) (Streptococcus thermophilus LMD-9); test: as above
[7] = molecular target: ComR T90A (ComR-StreptagII mutant) (Streptococcus thermophilus LMD-9); test: as above
[8] = molecular target: ComR Y91A (ComR-StreptagII mutant) (Streptococcus thermophilus LMD-9); test: as above
[9] = molecular target: ComR from Streptococcus thermophilus LMD-9 (ComR-StreptagII, wild type) (Streptococcus thermophilus LMD-9); test: as above
[10] = molecular target: ComR from Streptococcus thermophilus LMD-9 (ComR-StreptagII, wild type) (Streptococcus thermophilus LMD-9); test: as above; remark: listed apart in the source
ComR WT [11] = molecular target: T1, ComR WT (Streptococcus thermophilus LMD-9, UniProt PDB:5JUB_1 1-310); test: X-ray crystallography; XIP (LPYFAGCL); 0.1 M MgCl2 in crystallization; EMSA: 20 mM Tris-HCl pH 8.0, 150 mM NaCl, 1 mM EDTA, 10% glycerol, 1 mg/ml BSA, 37 C 10 min, 40 ng DNA in 20 ul; crystal: 30% PEG 550 MME, 0.1 M MgCl2, 0.05 M Tris-HCl pH 8.5, 18 C; conditions: protein: recombinant; tags: C-terminal StreptagII; chain copies: 2; blunt
T1 sequence: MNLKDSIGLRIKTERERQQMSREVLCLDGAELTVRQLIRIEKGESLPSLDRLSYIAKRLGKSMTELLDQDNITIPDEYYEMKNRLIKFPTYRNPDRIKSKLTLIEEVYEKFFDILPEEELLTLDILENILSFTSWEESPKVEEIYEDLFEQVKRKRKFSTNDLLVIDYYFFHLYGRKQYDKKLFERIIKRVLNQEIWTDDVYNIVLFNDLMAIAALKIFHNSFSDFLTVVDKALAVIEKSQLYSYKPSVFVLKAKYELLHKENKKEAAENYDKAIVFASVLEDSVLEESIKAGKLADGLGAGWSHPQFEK

In the case of “GAWYYVPL [casein-derived octapeptide GAWYYVPL]”, the “in vivo activation efficiency / activation of ComR” value [1] is listed as “also activated”.

For “LAYFYPEL [casein-derivative peptide LAYFYPEL]”, the “in vivo activation efficiency / activation of ComR” value [1] is listed as “inactive”.

For “ComS18-24: heptapeptide ComS18-24 lacking the N-terminal Leucine, minimal active form of the signaling peptide (PYFAGCL)”, the “activity of heptapeptide ComS18-24” value [1] is listed as “also fully active” and the “activity of heptapeptide ComS18-24” value ([1]; listed as heptapeptide 18–24) is listed as “minimal active form of the signaling peptide”.

For CC(C)C[C@H](N)C(=O)N1CCC[C@H]1C(=O)N[C@@H](Cc1ccc(O)cc1)C(=O)N[C@@H](Cc1ccccc1)C(=O)N[C@@H](C)C(=O)NCC(=O)N[C@@H](CS)C(=O)N[C@@H](C)C(=O)O [L24A] (H-LPYFAGCA-OH), the affinity in words (ComR WT [2]) was “the affinity of the peptide decreases drastically” and the Kd (ComR WT [2]) was 1550 ± 332 nM.

In the case of “VPFFMIYY [type I peptide VPFFMIYY from S. vestibularis]”, the “in vivo activation efficiency / activation of ComR” value [1] is listed as “more efficiently activated by the type II peptide MGLDWWSL from S. mutans than by the type I peptide VPFFMIYY”.

With CC(C)C[C@H](NC(=O)[C@H](CS)NC(=O)CNC(=O)[C@H](C)NC(=O)[C@H](C)NC(=O)[C@H](Cc1ccc(O)cc1)NC(=O)[C@@H]1CCCN1C(=O)[C@@H](N)CC(C)C)C(=O)O [F20A] (H-LPYAAGCL-OH) the affinity in words (ComR WT [2]) was “the affinity of the peptide decreases drastically” and the Kd (ComR WT [2]) was 2130 ± 226 nM.

For CC(C)C[C@H](NC(=O)[C@H](CS)NC(=O)CNC(=O)[C@H](C)NC(=O)[C@H](Cc1ccccc1)NC(=O)[C@H](C)NC(=O)[C@@H]1CCCN1C(=O)[C@@H](N)CC(C)C)C(=O)O [Y19A] (H-LPAFAGCL-OH), the affinity in words (ComR WT [2]) was “only little impact on the affinity of the protein” and the Kd (ComR WT [2]) was 52 ± 13 nM.

In the case of “MGLDWWSL [type II peptide MGLDWWSL from S. mutans]”, the “in vivo activation efficiency / activation of ComR” value [1] is listed as “more efficiently activated by the type II peptide MGLDWWSL from S. mutans than by the type I peptide VPFFMIYY”.

Work on LPYFAGCL [XIP octapeptide (ComS 17-24, LPYFAGCL) from Streptococcus thermophilus LMD-9] yielded a Kd [3] of 87 nM, a stoichiometry N [3] of 1.1 and a Kd [4] of 1180 nM. The stoichiometry N [4] was 0.8, the Kd [5] was 9 nM and the stoichiometry N [5] was 0.8. The Kd [6] was 277 nM, the stoichiometry N [6] was 1.2 and the Kd [7] was 244 nM. For the same molecule, the stoichiometry N [7] was 0.7, the Kd [8] was 141 nM and the stoichiometry N [8] was 0.9. For the same molecule, the Kd [9] was 10 nM, the stoichiometry N [9] was 0.8 and the Kd [10] was 8 nM. For the same molecule, the stoichiometry N [10] was 1.1.

For LPAFAGCL [XIP Y19A variant (ComS 17-24 with Y19A)], the Kd [10] was 52 nM and the stoichiometry N [10] was 1.5.

B1: PcomX ComR-box (20 bp) (dsDNA)
DNA 1: TAGTGACATATATGTCTCTA
DNA 2: TAGAGACATATATGTCACTA
B1: binds (ComR WT [11]).

In the case of LPYFAGCA [XIP L24A variant (ComS 17-24 with L24A)], the Kd [10] is reported as 1550 nM and the stoichiometry N [10] is reported as 1.75.

LPYAAGCL [XIP F20A variant (ComS 17-24 with F20A)] showed a Kd [10] of 2130 nM and a stoichiometry N [10] of 1.2.
